In PMC3573263 (Chemical biology & drug design, 2013) one finds koff and kon data, which are given here for 1 molecule.

The target in the assay is YopH PTPase domain (active catalytic domain, residues 164-468), wild type (Yersinia pestis, UniProt O68720 164-468). As to the kind of experiment: SPR.

[ ]: non-standard residue; d: D form. The star is where a group is joined. Biotin = O=C1N[C@H]2[C@H](CS[C@H]2CCCCC(=O)*)N1; pY = N[C@@H](Cc1ccc(OP(=O)(O)O)cc1)C(=O)O

As a reminder, the koff is the rate constant with which the complex falls apart. Read a high koff as fast dissociation. As usually defined, the kon is a measure of how fast the partners come together. Lower therefore signals slower complex formation.

B1: biotinylated pTyr-EGFR peptide, biotin-LVDADEpYLIPQQG-COOH (peptide)
peptide: Biotin-LVDADE[pY]LIPQQG-OH
SMILES: CC[C@H](C)[C@H](NC(=O)[C@H](CC(C)C)NC(=O)[C@H](Cc1ccc(OP(=O)(O)O)cc1)NC(=O)[C@H](CCC(=O)O)NC(=O)[C@H](CC(=O)O)NC(=O)[C@H](C)NC(=O)[C@H](CC(=O)O)NC(=O)[C@@H](NC(=O)[C@H](CC(C)C)NC(=O)CCCC[C@@H]1SC[C@@H]2NC(=O)N[C@@H]21)C(C)C)C(=O)N1CCC[C@H]1C(=O)N[C@@H](CCC(N)=O)C(=O)N[C@@H](CCC(N)=O)C(=O)NCC(=O)O
Molecule B1 displayed a koff of 0.0214 s⁻¹ and a kon of 34.9 M⁻¹ s⁻¹.
